This note sets out measurements from PMC10272136, “Molecular mechanisms of Holliday junction branch migration catalyzed by an asymmetric RuvB hexamer” (Nature Communications, 2022).

The target in one series is T1, RuvA (Thermus thermophilus, UniProt Q9F1Q3 1-191).
T1 sequence: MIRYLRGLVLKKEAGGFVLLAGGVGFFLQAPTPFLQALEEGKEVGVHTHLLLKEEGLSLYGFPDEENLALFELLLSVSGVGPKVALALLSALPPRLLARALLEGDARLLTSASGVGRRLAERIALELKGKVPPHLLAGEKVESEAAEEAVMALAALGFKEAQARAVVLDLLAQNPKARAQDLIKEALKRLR
Description: cryo-EM structure; from RuvA-RuvB-HJ sample; RuvA tetramer binds HJ core; 20 mM Tris-HCl pH 7.5, 10 mM MgCl2, 1 mM DTT, 2 mM ATPgS, 30 min at 37 C; gel filtration in 20 mM Tris-HCl, 150 mM NaCl. The settings on record: protein: recombinant; tags: N-terminal His tag (pET-28a, NdeI/XhoI); chain copies: 4; four-way junction of 4 strands, 1 copy each. (In general: SEC sorts molecules by how far they enter the pores of the column.)

Another series concerns the target T2, RuvB (Thermus thermophilus, UniProt Q5SL87 1-324).
T2 sequence: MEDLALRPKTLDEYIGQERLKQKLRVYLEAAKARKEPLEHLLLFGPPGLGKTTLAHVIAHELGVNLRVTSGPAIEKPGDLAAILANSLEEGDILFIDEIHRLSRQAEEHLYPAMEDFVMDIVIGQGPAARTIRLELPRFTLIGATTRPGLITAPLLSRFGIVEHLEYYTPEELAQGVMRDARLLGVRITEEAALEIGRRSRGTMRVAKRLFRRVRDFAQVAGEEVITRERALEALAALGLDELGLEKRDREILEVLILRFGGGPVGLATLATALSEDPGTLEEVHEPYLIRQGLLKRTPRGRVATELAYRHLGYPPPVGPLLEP
Description: gel filtration; 2 mM ATPgS, 10 mM MgCl2; DNA:RuvB monomer 1:6; 20 mM Tris-HCl pH 7.5, 10 mM MgCl2, 1 mM DTT, 2 mM ATPgS, 30 min at 37 C; gel filtration in 20 mM Tris-HCl, 150 mM NaCl. As to conditions: protein: recombinant; tags: N-terminal His tag (pET-28a, NdeI/SalI); chain copies: 6; four-way junction of 4 strands, 1 copy each.

Series [1] concerns the molecule itself. Description: cryo-EM structure; RuvB mixed with annealed HJ DNA at 1:6 (DNA/RuvB monomer) in 20 mM Tris-HCl pH 7.5, 10 mM MgCl2, 1 mM DTT, 2 mM ATP-γ-S, 30 min at 37 °C; complex purified by gel filtration; two maps (hexamer 2.97 Å, C1; dodecamer 3.2 Å, C2).
Series [2] concerns the molecule itself. Nature of the series: cryo-EM structure; sample of RuvA, RuvB and HJ DNA (6:4:1 RuvB:RuvA:HJ DNA); only a RuvA-HJ DNA structure was obtained; C4 symmetry, 4.3 Å.

Where “and” joins values, the source holds several entries; their conditions need not be identical. Equal entries are not always repeated.

B1: HJ DNA (HJ1-HJ4) (structured_DNA)
DNA 1: AGAATCTGCCGAGAGACCGAGCAGAATTCTATGTGTTTACCAAGCGCTG
DNA 2: CAGCGCTTGGTAAACACATAGAATTCTGCTCGGTCTGAGCCGTCTAAGA
DNA 3: TCTTAGACGGCTCACTGGCTGTGGGATCCGAGCTGTCTAGAGACATCGA
DNA 4: TCGATGTCTCTAGACAGCTCGGATCCCACAGCCAGTCTCGGCAGATTCT
Take B1: the binding result with RuvA and with RuvB was “binds” each time.

B2: Thermus thermophilus RuvB (enzyme, UniProt Q5SL87 1-324, looked up)
chain: T2 sequence
notes: RuvB, Holliday junction branch migration ATPase (AAA+), Thermus thermophilus; printed MW 35,973; Purified RuvB carried endogenous ADP (native mass spectrometry); It forms the hexamer and dodecamer only in the sample with DNA and ATPγS; also called T. thermophilus RuvB; RuvB protomer; source: E. coli BL21(DE3) RipL, purified (heat step at 55 °C, Ni-NTA, Superdex 200 gel filtration)
Consider B2, for which the stoichiometry N (usually the number of molecules, sites or subunits per partner or assembly) in series [1] is 6 and 12.

B3: Thermus thermophilus RuvA (natural protein, UniProt Q9F1Q3 1-191, looked up)
chain: T1 sequence
notes: source: E. coli BL21(DE3) RipL, purified (heat step at 55 °C, Ni-NTA, gel filtration)
Take B3: in series [2], the “stoichiometry N” value amounted to 4.
